This is an account of results in publication PMC8424379 (2021).

For the experiment, the target named is Raf2 fused to Gal4 DNA-binding domain (UniProt O74560). As to the kind of experiment: yeast two-hybrid (β-galactosidase). The conditions noted are these: Ccq1 fused to Gal4 activation domain, read off a plot.
Sequence of Raf2 fused to Gal4 DNA-binding domain (O74560 whole entry, the tested form may be a part): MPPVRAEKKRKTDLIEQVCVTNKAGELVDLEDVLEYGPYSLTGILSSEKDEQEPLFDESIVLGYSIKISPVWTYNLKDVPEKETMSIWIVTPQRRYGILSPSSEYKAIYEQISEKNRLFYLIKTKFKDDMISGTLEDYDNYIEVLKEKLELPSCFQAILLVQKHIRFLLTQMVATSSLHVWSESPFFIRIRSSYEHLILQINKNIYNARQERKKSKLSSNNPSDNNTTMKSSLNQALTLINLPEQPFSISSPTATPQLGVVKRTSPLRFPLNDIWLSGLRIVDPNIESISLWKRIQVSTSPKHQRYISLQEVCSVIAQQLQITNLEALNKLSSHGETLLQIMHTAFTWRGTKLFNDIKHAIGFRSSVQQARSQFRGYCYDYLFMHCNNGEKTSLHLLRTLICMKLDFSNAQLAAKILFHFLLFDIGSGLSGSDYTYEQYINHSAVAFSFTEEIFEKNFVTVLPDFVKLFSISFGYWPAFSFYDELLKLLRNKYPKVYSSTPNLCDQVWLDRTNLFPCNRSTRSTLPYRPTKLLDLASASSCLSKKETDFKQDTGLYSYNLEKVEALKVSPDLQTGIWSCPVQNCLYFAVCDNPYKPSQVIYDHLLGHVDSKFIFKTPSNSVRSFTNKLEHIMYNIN

Sequence of Ccq1_(496–583), Raf2-binding motif of Ccq1, fused to Gal4 activation domain (Q10432 496-583, stated change not applied): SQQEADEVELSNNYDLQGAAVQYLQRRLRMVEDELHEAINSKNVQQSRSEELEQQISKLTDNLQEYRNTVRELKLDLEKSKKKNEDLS

Substance “Ccq1_(496–583), Raf2-binding motif of Ccq1, fused to Gal4 activation domain (from UniProt Q10432) V570R” gave a response of 80.
